The source of these data is article PMC9437899.

In the experiment the target is neonatal Fc receptor (FcRn) (UniProt P55899). The experiment can be described thus: ELISA; pH 6.0; absorbance read with a plate reader; Kd defined as the concentration of protein that produces 50% of optimal binding response; who was immobilised is not given in the source. In general terms: In an ELISA, binding on a coated surface is turned into a signal by an enzyme label.
Sequence of neonatal Fc receptor (FcRn) (P55899 24-365): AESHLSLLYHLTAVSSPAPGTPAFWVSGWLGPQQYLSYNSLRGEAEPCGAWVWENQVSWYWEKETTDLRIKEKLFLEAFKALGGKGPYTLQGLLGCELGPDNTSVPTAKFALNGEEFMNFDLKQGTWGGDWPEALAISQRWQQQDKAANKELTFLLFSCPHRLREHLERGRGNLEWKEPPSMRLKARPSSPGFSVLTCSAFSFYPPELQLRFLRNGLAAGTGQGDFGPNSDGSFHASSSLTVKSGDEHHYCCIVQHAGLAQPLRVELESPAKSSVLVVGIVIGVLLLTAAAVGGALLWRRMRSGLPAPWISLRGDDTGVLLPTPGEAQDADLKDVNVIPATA

For Fc-PepH3 conjugate (Fc fusion), the Kd (usually a measure of binding affinity in units of concentration) came to 0.0954 µM.
